In paper PMC3509953 (Journal of molecular biology, 2012):

B5: PRDC with the unpaired cysteine mutated to serine (C120S), bacterially produced (natural protein, mouse, UniProt O88273 22-168, looked up)
chain: RKNRPAGAIPSPYKDGSSNNSERWHHQIKEVLASSQEALVVTERKYLKSDWCKTQPLRQTVSEEGCRSRTILNRFCYGQCNSFYIPRHVKKEEDSFQSSAFCKPQRVTSVIVELECPGLDPPFRIKKIQKVKHCRCMSVNLSDSDKQ

What was measured:
[1] = biological target: the molecule itself; test: SEC
[2] = biological target: B5; test: SPR
[3] = biological target: the molecule itself; test: AUC
[4] = biological target: the molecule itself; test: cross-linking
[5] = biological target: the molecule itself; test: MALDI-TOF mass spectrometry

B1: Protein related to DAN and Cerberus (PRDC), wild type, bacterially produced (natural protein, mouse, UniProt O88273 22-168, looked up)
chain: RKNRPAGAIPSPYKDGSSNNSERWHHQIKEVLASSQEALVVTERKYLKSDWCKTQPLRQTVSEEGCRSRTILNRFCYGQCNSFYIPRHVKKEEDSFQSCAFCKPQRVTSVIVELECPGLDPPFRIKKIQKVKHCRCMSVNLSDSDKQ
modifications: a single glutathione (by mass spectrometry; residue not stated)
- stoichiometry N [1]: 2

B2: BMP2 (ligand, UniProt P12643 283-396, looked up)
chain: QAKHKQRKRLKSSCKRHPLYVDFSDVGWNDWIVAPPGYHAFYCHGECPFPLADHLNSTNHAIVQTLVNSVNSKIPKACCVPTELSAISMLYLDENEKVVLKNYQDMVVEGCGCR
- Kd [2]: 57.1 ± 7.8 nM

B3: BMP4 (ligand, UniProt P12644 293-408, looked up)
chain: SPKHHSQRARKKNKNCRRHSLYVDFSDVGWNDWIVAPPGYQAFYCHGDCPFPLADHLNSTNHAIVQTLVNSVNSSIPKACCVPTELSAISMLYLDEYDKVVLKNYQEMVVEGCGCR
- Kd [2]: 70.7 ± 2.6 nM

B4: BMP7 (ligand, UniProt P18075 293-431, looked up)
chain: STGSKQRSQNRSKTPKNQEALRMANVAENSSSDQRQACKKHELYVSFRDLGWQDWIIAPEGYAAYYCEGECAFPLNSYMNATNHAIVQTLVHFINPETVPKPCCAPTQLNAISVLYFDDSSNVILKKYRNMVVRACGCH
- Kd [2]: 86.6 ± 3.7 nM

Binder: B5
- stoichiometry N [3]: 2

B6: DAN (differential screening selected gene abberative in neuroblastoma) (natural protein, human)
chain: AAPPPINKLALFPDKSAWCEAKNITQIVGHSGCEAKSIQNRACLGQCFSYSVPNTFPQSTESLVHCDSCMPAQSMWEIVTLECPGHEEVPRVDKLVEKILHCSCQACGKEPSHEGLSVYVQGEDGPGSQPGTHPHPHPHPHPGGQTPEPEDPPGAPHTEEEGAEDLEVLFQ
- stoichiometry N [4]: 2

B7: activin A (ligand, UniProt P08476 311-426, looked up)
chain: GLECDGKVNICCKKQFFVSFKDIGWNDWIIAPSGYHANYCEGECPSHIAGTSGSSLSFHSTVINHYRMRGHSPFANLKSCCVPTKLRPMSMLYYDDGQNIIKKDIQNMIVEECGCS
- stoichiometry N [5]: 2
